Assay: yeast display, Sf9 membrane polyspecificity reagent, FACS + sequencing; frameworks hold sequencing errors
Summary of the method: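 Galactose-induced (36–48 hours) yeast carrying a synthetic nanobody display library were exposed to 10% biotinylated, detergent-solubilized Sf9 membrane reagent at 4 °C for 1 hour. FACS followed streptavidin microbead enrichment, using low and high (top ~1%) gates for expression (anti-HA) and reagent binding (streptavidin). Colony PCR, MiSeq 2 × 250 sequencing and CDR-length filtering followed. Labels for polyreactivity reflect the gate of origin.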

Row | Sequence | polyreactivity (PSR sort gate)
1 | QVQLVESGGGLVQAGGSLRLSCAASGRILPFNAMGWYRQAPGKERELVAAIRWRGSSTYYADSVKGRFTISRDIAKNTVYLQMNSLKPEDTAVYYCAAPSSVRGKVISAYYGYWGQGTQVTVSS | high polyreactivity
2 | QVQLVESGGGLVQAGGSLRLSCAASGYTFFRYAMGWYRQAPGKERELVAAISGGGGSTYYADSVKGRFTISRDYAKNTVYLQMNSLKPEDTAVYYCAAESQAYSLYWGQGTQVTVSS | high polyreactivity
3 | QVQLVESGGGLVQAGGSLRLSCAASGFTFVYYAMGWYRPAPGKERDLVATISGNGGRTYYADSVKGRFTISRDNAKNTVYLQMNSLKPEDTAVYYCATDVGFGRKQRPHRPGYGYWGQGTQVTVSS | low polyreactivity
4 | QVQLVESGGGLVQAGGSLRLSCAASGSIFRSNAMGWYRQAAGKERELVAAIDYSGTSTTYADSVKGRFTISRDNAKNTVYLQMNSLKPEDTAVYYCNADGYYRGYWSGYEYWGQGTQVTVSS | low polyreactivity
5 | QVQLVESGGGLVQAGSTLRLSCAASGRIFDLYTMGWYRQAPGKERELVAAIRWSDGSTYYADSVKGRFTISRDYAKNTVYLQMNSLKPEDTAVYYCAADTRTSYYNDDYDYWGQGTQVTVSS | low polyreactivity
6 | QVQLVESGGGLVQAGGSLRLSCAASGSIFGAYAMGWYRQAPGPESELVATITLRDGSTYYADSVKGRFTISRDNAKNTVYLQLNSLKPEDTAVYYCATYYSAINYGSSTTILYDYWGQGTQVSVSS | low polyreactivity
7 | QVQLVESVGGLVQAGGSLRLSCAASGRTFLYYTMGWYRQAPGKERELVAAISTSGGSTNYADSVKGRFTISRDNAKNTVYLQMNSLKPEDTAVYYCAAETSTNPEAYEYWGQGTQVTVSS | low polyreactivity
8 | QVQLVESGGGLVQAGGSLRLSCAASGSNFYGYAMGWYRQAPGKERELVAAISSGGRTKYADSVKGRFTISRDNAKNTVYLQMNSLKPEDTAVYYCNVSYLVDRWKFGWSMDYWGQGNQVTVSS | low polyreactivity
9 | QVQVVETGGGLVQAGGSLRLSCAPSGITFVTYAMGWYRQAPGKERELVAAISRSGGRTYYADSVNVRFTISRDNAKNTVYLQMNSLKPEDTAVYYCAAERKNKYDYWGQGTQVTVSS | high polyreactivity
10 | QVQLVESGGGLVQAGGSLRLSCAASGRTFLWNDMGWYRQAPGKERELVAAITGSDGTYADSVKGRFTISRDNAKNTVYLQMNSLKPEDTAVYYCAAETYGYFPWKYDYWGQGTQVTVSS | low polyreactivity
11 | QVQLVESAGGLVQAGGSLRLICAASGGTFSTYAIGWYRQAPGKEREFVAAITRSGTSTYYADSVKGRFTISRDNAKNTVYLQMNGLNPEDTAVYYCAAGVYSFRYDYWGQGTQVTVSS | low polyreactivity
12 | QVQLVESGGGLVQAGGSLRLSCAASGFTYYYYAMGWSRQAPGKVRELVAAITYSGGSTYYADSVKGRFTISRDNAKNTVYLLMNSLKPEDTAVYYCNAVVGRWFPFNLSDYWGQGTQVTVSS | low polyreactivity
13 | QVQLVESGGRLVQAGGSLRLSCAASGRTFIGYARGWYRQAPGKERELVAGISWSGGSTYYADSVKGRFTISRDNAKNTVYLQMNSLKPEDTAVYYCAARGRWSTEYGYWGQGTQVTVSS | low polyreactivity
14 | QVQLVESGGGLVQAGGSLRLSCAASGSIFTPYAMGWYRQAPGKEREFVADIDDSGGGTYADSVKGRFTISRDNAKNTVYLQMNSLKPEDTAVYYCNADTGIWDYRFVDRDYWGQGTQVTVSW | low polyreactivity
15 | QVQLVESGGGLVQAGGSLRLSCAASGITFVRNAMGWYRQAPGKERELVAAITSRGGITYYADSVKGRFTISRDNAKNTVYLQMNSLKPEDTAVYYCNKTRGYAVNGYNYWGQGTQVTVSS | high polyreactivity
16 | QVQLVESGGGLVQAGGSLRLSCAASGFIFNYYAMGWYRQAPGKERELVAISRGGSTNYADSVKGRFTISRDNAKNTVYLQMNSLKPEDTAVYYCAATKRYASGMYYWGQGTQVTVSS | high polyreactivity
17 | QVQLVESGGGLVQAGGSLRLSCAASGSTFYGYAMGRYRQSPGKERELVAAITRSGGSTYYADSVKGRFTISRDNAKNTVYLQMNSLKPEDTEVYYCNKYGYKGGVGYDYWGQGTQVTVSS | high polyreactivity
18 | QVQLVESGGGIVQAGGSLRLSCAASGFTFYRYAMGWYRQAPGKERELVAAITWSGGSTYYADSVKGRFTISRDNAKNTVYLQMNSLKPEDTAVYYCAADIYDGGFDYWGQGTQVTVSS | low polyreactivity
19 | QVQLVESCGGLVQAGGSLRLSCSASGFIIPYYAMGWYRQAPGKERELVAAISYSGDSTYYADSVKGRFTISRDNAKNTVYLLMISLKPEDTAVYYCAADVEQYYPLLTFDYCGQGTQVTVSS | low polyreactivity
20 | QGHLRESGGGLVQAGGSLRLTCAASGSNLWQYAMGWYRQATGKERELVAAITYSGGSTHYADSVKGRFTISRDNAKNTVYLQLNSLKPEDTAVYYCAAGSWYRYAALRYDHWGQGTQVTVST | low polyreactivity
21 | QVQLVESGGGLVQAGGSLRLSCAASGSIFQVYAMGWYRQAPGKERELVAAISGGGSSTYYADSVKGRFTISRDNAKNTVYLQMNSLKPEDTAVYYCAAAYSWYDNNRYDYWGQGTQVTVSS | low polyreactivity
22 | QVQLVESGGGLVQAGGSLRLSCAASGRIFYRNAMGWYRQSPGKERELVAAINWSGGSTYYAYSVKGRFTISRDNAKNTVYLQMNSLKPEDTAVYYCATGYRQGEYDYWGQGTQVTLSS | low polyreactivity

Row | Sequence | polyreactivity (PSR sort gate)
23 | QVQLVESGGGLVQAGGSLRLSCAASGSTSSVYAMGWYRQAPGKERELVAAISYRGARTYYADSVKGRFTISRDNAKNTVYFQMNSLKPEDTAVYYCAAENYPRRPRYDYWGQATQVTVSS | high polyreactivity
24 | QVQLVESGGGLVQAGGSLRLSCAASGRTFVGNAMGWYRQAPGKEREFVAAITSRTGSTYYADSVKGRFTISRDNAKYTVYLQMNSLKPEDTAVYYCATPYYQNVYSRKAYNYWGQGTQVTVSS | high polyreactivity
25 | QVQLVESGGGLVQAGGSLRLSCADSGSTFYVYSMGWYRQAPGKERELVAAITGSTGSTYYADSVKGRFTISRDNAKNTVYLQMNSLKPVDTAVYYCAADFYGVPIIYDYWGQGTQVTLSS | low polyreactivity
26 | QVQLVESGGGLVQAGGSLRLSCAASGSTSPFYVMGWYRQAPGKERELVAAISYSGGSTYYADSVKGRFTISRDNAKNTVYLQMISLKPEDTAVYYCAARYRLTYGLYGYWGQGTQVTVSS | high polyreactivity
27 | QVQLVESGGGLVQAGGSLRLSCAASGGTFDSYAMGWYRQAHGKERELVAAITRRTSSTYYADSVKGRFTISRDNAKNTVYLQMHSLKPEDTAVYYCNADSYYYDHRDFGYWGQGTLVTVSS | high polyreactivity
28 | QVQLVESGGGLDQAGGSLRLSCAASGSIFETYVMGWYRQAPGKERELVAAINSGGSTYYADSVKGRFTISRDNAKNTVYLQMNSLKPEDTAVYYFAADSPYGYYEGDYWGQGTQVTVSS | low polyreactivity
29 | QVQLVESGGGLVQAGGSLRLSCAASGSIFGVYAMGWYRQAPGKERELVARISGSSGSTRYSDSVKGRFTISRDNAKNTVYLQMNSLKPEDTAVYYCAARAIFRQGDRIYDSWGQGTQVTVSS | high polyreactivity
30 | QVQLVESGGGLVQAGGSLRLSCAASGRIFNYYAMGWYRQAPGKERELVAAISSGGITNYADSVKGRFTISRDNAKNTVYLQMNSLKPEDTAVYYCAADRSNRPYYRQGYDYWGQGTQVTVSS | high polyreactivity
31 | QVQLVESGGGLVQAGGSLRLSCAASGSIFSRYAMGWYRQAPGKERELVAAISWRGGSTYYADSVKGRFTISRDNAKNTVYLQMTSLKPEDTAVYYCAAVYRGGPYYYWGQGTQVTVSS | high polyreactivity
32 | QVQLVESGGGLVQAGGSLRLSCAASGIIFWYYAMGWYRQAPGKERELVAAISQSGGRTYYADSVKGRFTISRDNAKNTVYLQMNSLKPEDTAVYYCAAEPYTGYGYWGQGTQVTVSS | high polyreactivity
33 | QVQLVESGGGLVQAGGSLRLSCAASGITFGIYVMGWYRQAPGKERELVATISRSDDNTYYADSVKGRFTISRDNAKNTVYLQMNSLKPEDTAVYYCAADGVISAWYSSRDDYWGQGTQVTVSS | low polyreactivity
34 | QVQLVESGGGLVQAGGSLRLSCAASGSIFPAYDMGWYRQAPGKERELVAAIDRGGSTYYADSVKGRFTISRDNAKNTVYLQMNSLKPEDTAVYYCATGYWNTSVYVRLEKRDYWGQGTQVTVSS | low polyreactivity
35 | QVQLVESGGGLVQAGDSLRLSCAASGLTFTYYAMGWYRQAPGKERELVAAITGSGDRTYYADSVKGRFTISRDNAKNTVYLQMNSLKPEDTAVYYCARDRPGRATGFDYWGPGTQVTVSS | high polyreactivity
36 | QVQLVESGVGLVQAGGSLRLSCAASGGNFWSYPMGLYRQAPGKEREYVAAITTSAGRTNYADSVKGRFTISRDNAKNSVYLQMNSLKPEDTAVYYCAARSAYPGLGYGFDYWGQGTQVTVSS | low polyreactivity
37 | QVQLVESAGGLVQAGGSLRLSCAASGSIFYTYAMGWYRQAPGKERELVAAISGSGTSTYYADSVKGRFTISRDNAKNTVYLQMNSLKPEDTAVYYCATDGGAAWGRYYWDYGYWGQGTQVTVSS | low polyreactivity
38 | QVQLVESGGGLVQAGGSLRLSCAASGSTFWYNMGWYRQAPGKERELVAAISYSSGRTYYADSVKGRFTISRDNAKNTVYLQMNSLKPEDTAVYYCAARYPRTRRYGYWGQGTQVTVSS | high polyreactivity
39 | QVQLVESGGGLVQAGGSLRLSCAASGRTFVNNAMGWYRQAPGKERELVAAISQSGSRTYYADSVKRRFTISRDNAKNSVYLQMNSLNTEDTAVYDCAARGARSSTSDDWGQGTQVTVSS | high polyreactivity
40 | QVQLVESGGGLVQAGGSLRLSCAASGRTFYLNTMGWYRQAPGKERELVAGITSSGTRTYYADSVKGRFTISRDNAKNTVYLQMNSLKPEDTAVYYSAKTWGGQIRPRYRYGSGYDYWGQGTQVTVSS | high polyreactivity
41 | QVQLVESGGGLVQAGGSLRLSCAASGSTFTYYAMGWYRQAPGTERELVAAITGSDGRTYYADSVKGRFTISRDNAKNTVYLQMNSLKPEDTAVYYCATDVPIREIDEFGYWGQGTQVTVSS | low polyreactivity
42 | QVQLVESGGGLVQAGGSLRLSCAASGSIFRSYAMGWYRQAPGKERELVAAISGRGSNTYYADSVKGRFTISRDNAKNTVYLQMNSLKPEDTAVYYCATRQWVFSHGYWGQGTQVTVSS | high polyreactivity
43 | QVQLVESGGGLVQAGGSLRLSCAASGRIFVSYDMGWYRQAPGKEREFVAAIRRSGSSTYYADSVKGRFTISRDNAKNTVYLQMNSLKPEDTAVYYCAAYQRSRTLRRYDYWGQGTQVTVSS | high polyreactivity

— the nanobody polyreactivity screen of Harvey et al. (2022)
